For experiment [1], the target named is T1, Influenza A group 1 HA Foldon.6×His (Influenza A virus (H1N1)).
T1 construct: also called HA-6×His; HA.6×His
The experiment can be described thus: SPR (Biacore 8k), 37C; HA Foldon-6xHis captured via anti-His, bsAb injected.

Experiment [2] has as its target T1, Influenza A group 1 HA Foldon.6×His. In words: SPR (Biacore 8k), 25C; HA Foldon-6xHis captured via anti-His, bsAb injected.

The Kd is the equilibrium constant for the complex coming apart. Higher therefore signals lower affinity. For orientation: koff means the first-order rate constant of dissociation. A higher koff goes with fast dissociation. What is called kon is a measure of how fast the partners come together. The term t½ denotes the time in which the quantity being followed falls by half. A low value points to rapid decline.

B1: REGN6093, anti-Influenza HA x anti-C1q bispecific antibody (bispecific antibody, V domains shown)
VH 1: QVHLVQSGPEVKKPGSSVKVSCKASGVTFISHAISWVRQAPGQGLEWVGGIIAIFGTTNYAQKFQGRVTVTTDKSTNTVYMELSRLRSEDTAIYYCARGETYYEGNFDFWGQGTLVTVSS
VH 2: EVQLVESGGGVVQPGGSLRLSCAASGFSLDDYAMHWVRQTPGKGLEWVSLISGDGSRTSYADSVKGRFTISRDNSKNSLYLKMNSLRTEDTALYYCTKDPHNSNWFDPWGQGTLVTVSS
VL: not shown
notes: also called FluA group 1 x C1q bispecific; anti-HA x anti-C1q
In experiment [1], B1 showed a dissociation constant Kd of 0.519 nM, a koff of 5.15e-05 s⁻¹, a kon of 99400 M⁻¹ s⁻¹ and a t½ of 3.74 h. In experiment [2], the equilibrium dissociation constant (Kd) amounted to 1.11 nM, the off-rate (koff) was determined as 0.000175 s⁻¹, the kon is 158000 M⁻¹ s⁻¹ and the t1/2 amounted to 1.1 h.

Values taken from US20220153819A1 (Regeneron, published 2022).
